From JP2012115243A (dated 2012)

Legend:
MT1−MMPヒンジ領域ペプチドコンジュゲート = molecular target: T1, MT1−MMPヒンジ領域ペプチドコンジュゲート (mouse, UniProt P02769 25-607 (bovine entry), C-terminal Cys coupled through the linker Sulfo-EMCS to the carrier protein); assay: SPR, peptide 3-BSA complex immobilised, scFv as analyte
T1 construct: peptide 3); also called ペプチド−BSA複合体; 固相化抗原

[1] = molecular target: T2, 抗MT1−MMP抗体MMPK9I (ハイブリドーマ19Bが産生する抗体IgG); assay: flow immunoassay: free hinge peptide (0.0-100 ng/mL) inhibits binding of Cy5-F(ab')2-labelled IgG MMPK9I to conjugate-coated polystyrene beads
T2 construct: Mouse IgG from hybridoma 19B; Culture supernatant in the screening; in the flow immunoassay in complex with Cy5-labelled goat anti-mouse IgG F(ab')2; also called 抗体K9I

T1 sequence (P02769 25-607 limits assumed): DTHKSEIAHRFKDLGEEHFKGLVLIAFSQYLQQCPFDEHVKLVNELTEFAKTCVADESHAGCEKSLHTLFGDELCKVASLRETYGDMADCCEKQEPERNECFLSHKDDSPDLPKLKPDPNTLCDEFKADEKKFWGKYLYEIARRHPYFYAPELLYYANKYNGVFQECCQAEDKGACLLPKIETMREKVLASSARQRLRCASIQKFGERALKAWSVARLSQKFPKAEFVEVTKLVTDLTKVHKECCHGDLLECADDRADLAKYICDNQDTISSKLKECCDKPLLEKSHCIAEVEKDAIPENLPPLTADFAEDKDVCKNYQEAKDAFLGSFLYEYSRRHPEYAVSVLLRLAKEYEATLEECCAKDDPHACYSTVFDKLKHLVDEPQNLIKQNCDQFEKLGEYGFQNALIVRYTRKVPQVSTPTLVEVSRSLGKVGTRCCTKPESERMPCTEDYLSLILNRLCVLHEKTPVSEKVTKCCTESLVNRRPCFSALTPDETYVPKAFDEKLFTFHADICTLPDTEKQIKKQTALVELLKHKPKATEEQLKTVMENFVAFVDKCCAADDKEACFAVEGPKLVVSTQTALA

Binder | Kd (MT1−MMPヒンジ領域ペプチドコンジュゲート) | IC50 [1]
単鎖抗体MMP98−1 (scFv, V domains shown) VH: EVQLQQSGPELKKPGETVKISCKASGYPVTKYGMNWVKQAPGKGLKWMGWINTYTGEPTYTDDFKGRFAFSLETSANTAYLQINNLKDEDTATYFCANSHGKYVEWFTYWGQGTTVTVSS VL: DIELTQSPTTMAASPGEKITITCSASSSISSNYLHWYQQKPGFSPKLLIYRTSNLASGVPARFSGSGSGTSYSLTIGTMEAEDVATYYCQQGSSIPLTFGAGTKLELKR | ~10 nM | –
単鎖抗体MMPK9E−1 (scFv, V domains shown) VH: QIQLVQSGPELKKPGETVKISCKASGYTFTSYALHWVKQAPGKGLKWMGWKYTNTGEPTYGDDFKGRFAFSLETSASTAYLQINNLKNEDMATYFCARGGLSSYAMDYWGQGTSVTVSS VL: DIVMSQSPSSLAVSAGEKVTMSCKSSQSLLNSRTRKNYLAWYQQKPGQSPKLLIYWASTRESGVPDRFTGTGSGTDFTLTISSVQAEDLAVYYCKQSYNLLVTFGAGTKLELKR | ~10 nM | –
単鎖抗体MMPK9I−1 (scFv, V domains shown) VH: QVQLQQSGAELVRPGASVTLSCKASGYRFTDYEMHWVRQTPVHGLEWIGAIDPETGGTAYNQKFKGKATLTEDKSSSTAYMELRSLTSEDSAVYYCTTMITTALDYWGQGTSVTVSS VL: DVLMTQTPLSLPVSLGDQASISCRSSQSIVHSDGNTYLEWYLQKPGQSPKVLIYKVSNRFSGVPDRFSGSGSGTDFTLKITRVEAEDLGVYYCFQGSHVPYTFGGGTKLEIKR | ~10 nM | –
PQPRTTSRPSVPDKPKNC (also called MT1−MMPペプチド; 抗原ペプチド) [MT1−MMPヒンジ領域ペプチド] | – | ~4.74 ng/mL
